Results: patent publication US20230304075, “NUCLEIC ACID-BASED BIOSENSOR AND ASSOCIATED METHODS” (FACible BioDiagnostics LLC, published 2023)

B1: Rho91 (DAF1-4560c-17) (ssRNA)
RNA: GGCGAUGCUAGGCUACGACUAGGCCUGAGAAUACUAGUCAAAGACGAUCGCUCGCUUCGGCGAUGAUGGAGAGGCGCAAGGUUAACCGCCUCAGCGUUCAAGCAAAAGAACCCUGUUUGGCUCACCGGGUCCUGCGCAU
B2: Rho94 (DAF2-30e-17) (ssRNA)
RNA: GGUAGCCCUGCCCGGUGUACCUGAGCCUAGCUCAACGACUCGCUUCGGCGAUGAUGGAGAGGCGCAAGGUUAACCGCCUCAGUCGAAUGGGUACACCUGGCAGUCCGGACAUGCAU

Key:
[1] = molecular target: SARS-CoV-2 spike S2 protein (SARS-CoV-2, UniProt P0DTC2 P0DTC2:686-1213)
[2] = molecular target: SARS-CoV-2 spike S1 protein (SARS-CoV-2, UniProt P0DTC2 P0DTC2:14-685)

| Binder | binding result [1] | binding result [2] |
| --- | --- | --- |
| B1 | binds | no binding |
| B2 | binds | no binding |
